The source of these data is the Human Domainome abundance scans (Beltran et al. 2025).

± gives the uncertainty stated by the source.

B1: Formin-binding protein 4, residues 593 to 636; numbered along this chain, Q8N3X1 (parent)
chain: EINATPKGWSCHWDRDHRRYFYVNEQSGESQWEFPDGEEEEEES

The variants in the data set derive from B1. Put plainly: abundance fitness (aPCA) (normalised: wild type 0, dead -1); higher = more abundant; growth selection in yeast, the domain comes from the species named. Conditions: Homo sapiens.
Turning to EINATPKGWSCHWDRDHRRYFYVNEQSGESQWEFPDGHEEEEES [E38H], the abundance fitness is -0.2 ± 0.12. Then EINATPKGWSCHWDRDHRRYFYVNEQSGESQWEFPDGQEEEEES [E38Q], with 0.061 ± 0.077; and EINATPKGWSCHWDRDHRRYFYVNEQSGESQWEFPDGCEEEEES [E38C], with -0.047 ± 0.071. With EINATPKGWSCHWDRDHRRYFYVNEQSGESQWEFPDGGEEEEES [E38G], the abundance fitness was -0.051 ± 0.072. With EINATPKGWSCHWDRDHRRYFYVNEQSGESQWEFPDGAEEEEES [E38A] the figure was 0.018 ± 0.066; with EINATPKGWSCHWDRDHRRYFYVNEQSGESQWEFPDGFEEEEES [E38F], -0.217 ± 0.12. Regarding EINATPKGWSCHWDRDHRRYFYVNEQSGESQWEFPDGIEEEEES [E38I], the abundance fitness was -0.021 ± 0.16. With EINATPKGWSCHWDRDHRRYFYVNEQSGESQWVFPDGEEEEEES [E33V] the figure was -0.456 ± 0.068. As for EINATPKGWSCHWDRDHRRYFYVNEQSGESQWKFPDGEEEEEES [E33K], the abundance fitness is -0.232 ± 0.062. Then EINATPKGWSCHWDRDHRRYFYVNEQSGESQWFFPDGEEEEEES [E33F], with -0.497 ± 0.081; and EINATPKGWSCHWDRDHRRYFYVNEQSGESQWHFPDGEEEEEES [E33H], with -0.408 ± 0.17; and EINATPKGWSCHWDRDHRRYFYVNEQSGESQWGFPDGEEEEEES [E33G], with -0.168 ± 0.067. With EINATPKGWSCHWDRDHRRYFYVNEQSGESQWYFPDGEEEEEES [E33Y] the figure was -0.892 ± 0.24; with EINATPKGWSCHWDRDHRRYFYVNEQSGESQWMFPDGEEEEEES [E33M], -0.341 ± 0.09; with EINATPKGWSCHWDRDHRRYFYVNEQSGESQWTFPDGEEEEEES [E33T], -0.078 ± 0.08. For the variant EINATPKGWSCHWDRDHRRYFYVNEQSGESQWPFPDGEEEEEES [E33P], the abundance fitness was -0.59 ± 0.083.

EINATPKGWSCHWDRDHRRYFYVNEQSGESQWDFPDGEEEEEES [E33D]: the abundance fitness is -0.237 ± 0.15.

Turning to EINATPKGWSCHWDRDHRRYFYVNEQSGESQWSFPDGEEEEEES [E33S], the abundance fitness was -0.184 ± 0.082.

Consider EINATPKGWSCHWDRDHRRYFYVNEQSGESQWLFPDGEEEEEES [E33L], for which the abundance fitness was -0.401 ± 0.072.

On to EINATPKGWSCHWDRDHRRYFYVNEQSGESQWWFPDGEEEEEES [E33W], for which the abundance fitness was -0.429 ± 0.063. Then EINATPKGWSCHWDRDHRRYFYVNEQSGESQWAFPDGEEEEEES [E33A], with -0.064 ± 0.062; and EINATPKGWSCHWDRDHRRYFYVNEQSGESQWQFPDGEEEEEES [E33Q], with -0.009 ± 0.085; and EINATPKGWSCHWDRDHRRYFYVNEQSGESQWRFPDGEEEEEES [E33R], with -0.241 ± 0.055. With EINATPKGWSCHWDRDHRRYFYVNEQSGESQWIFPDGEEEEEES [E33I] the figure was -0.284 ± 0.28; with EINATPKGWSCHWDRDHRRYFYVNEQSGESQWNFPDGEEEEEES [E33N], 0.031 ± 0.094; with EINATPKGWSCHWDRDHRRYFYVNEQSGESQWCFPDGEEEEEES [E33C], -0.355 ± 0.25.

For EINATPKGWSCHWDRDHRRYFYVNEQSGESQWEFPWGEEEEEES [D36W], the abundance fitness is -0.262 ± 0.073.

On to EINATPKGWSCHWDRDHRRYFYVNEQSGESQWEFPVGEEEEEES [D36V], for which the abundance fitness was -0.044 ± 0.064. Then EINATPKGWSCHWDRDHRRYFYVNEQSGESQWEFPIGEEEEEES [D36I], with -0.07 ± 0.13; and EINATPKGWSCHWDRDHRRYFYVNEQSGESQWEFPSGEEEEEES [D36S], with 0.003 ± 0.068; and EINATPKGWSCHWDRDHRRYFYVNEQSGESQWEFPQGEEEEEES [D36Q], with -0.063 ± 0.072. Then EINATPKGWSCHWDRDHRRYFYVNEQSGESQWEFPYGEEEEEES [D36Y], with -0.494 ± 0.13; and EINATPKGWSCHWDRDHRRYFYVNEQSGESQWEFPFGEEEEEES [D36F], with -0.232 ± 0.11. With EINATPKGWSCHWDRDHRRYFYVNEQSGESQWEFPTGEEEEEES [D36T] the figure was -0.137 ± 0.081.

For EINATPKGWSCHWDRDHRRYFYVNEQSGESQWEFPAGEEEEEES [D36A], the abundance fitness was -0.04 ± 0.067.

For the variant EINATPKGWSCHWDRDHRRYFYVNEQSGESQWEFPHGEEEEEES [D36H], the abundance fitness was -0.087 ± 0.083. With EINATPKGWSCHWDRDHRRYFYVNEQSGESQWEFPPGEEEEEES [D36P] the figure was -0.025 ± 0.071; with EINATPKGWSCHWDRDHRRYFYVNEQSGESQWEFPNGEEEEEES [D36N], -0.273 ± 0.16; with EINATPKGWSCHWDRDHRRYFYVNEQSGESQWEFPMGEEEEEES [D36M], -0.09 ± 0.079. As for EINATPKGWSCHWDRDHRRYFYVNEQSGESQWEFPEGEEEEEES [D36E], the abundance fitness is -0.113 ± 0.085. In the case of EINATPKGWSCHWDRDHRRYFYVNEQSGESQWEFPCGEEEEEES [D36C], the abundance fitness is -0.097 ± 0.095. Then EINATPKGWSCHWDRDHRRYFYVNEQSGESQWEFPLGEEEEEES [D36L], with -0.176 ± 0.065; and EINATPKGWSCHWDRDHRRYFYVNEQSGESQWEFPRGEEEEEES [D36R], with -0.012 ± 0.062.

For EINATPKGWSCHWDRDHRRYFYVNEQSGESQWEFPKGEEEEEES [D36K], the abundance fitness is -0.076 ± 0.12. With EINATPKGWSCHWDRDHRRYFYVNEQSGESQWEFVDGEEEEEES [P35V] the figure was -0.583 ± 0.071; with EINATPKGWSCHWDRDHRRYFYVNEQSGESQWEFLDGEEEEEES [P35L], -0.801 ± 0.076; with EINATPKGWSCHWDRDHRRYFYVNEQSGESQWEFYDGEEEEEES [P35Y], -0.995 ± 0.18.

With EINATPKGWSCHWDRDHRRYFYVNEQSGESQWEFWDGEEEEEES [P35W], the abundance fitness is -0.782 ± 0.094. Then EINATPKGWSCHWDRDHRRYFYVNEQSGESQWEFDDGEEEEEES [P35D], with -0.712 ± 0.092; and EINATPKGWSCHWDRDHRRYFYVNEQSGESQWEFFDGEEEEEES [P35F], with -0.854 ± 0.23. As to EINATPKGWSCHWDRDHRRYFYVNEQSGESQWEFADGEEEEEES [P35A], the abundance fitness was -0.455 ± 0.066. Then EINATPKGWSCHWDRDHRRYFYVNEQSGESQWEFRDGEEEEEES [P35R], with -0.661 ± 0.065; and EINATPKGWSCHWDRDHRRYFYVNEQSGESQWEFKDGEEEEEES [P35K], with -0.482 ± 0.098; and EINATPKGWSCHWDRDHRRYFYVNEQSGESQWEFNDGEEEEEES [P35N], with -0.74 ± 0.11. With EINATPKGWSCHWDRDHRRYFYVNEQSGESQWEFTDGEEEEEES [P35T] the figure was -0.753 ± 0.099; with EINATPKGWSCHWDRDHRRYFYVNEQSGESQWEFSDGEEEEEES [P35S], -0.651 ± 0.095. For EINATPKGWSCHWDRDHRRYFYVNEQSGESQWEFMDGEEEEEES [P35M], the abundance fitness was -0.734 ± 0.13. Consider EINATPKGWSCHWDRDHRRYFYVNEQSGESQWEFGDGEEEEEES [P35G], for which the abundance fitness was -0.611 ± 0.062.
